The results in this text go back to patent publication US20030186329A1, “Use of substrate subtraction libraries to distinguish enzyme specificities” (The Scripps Research Institute, priority 1998, published 2003).

Test [1] concerns the target T1, u-PA (Homo sapiens, UniProt P00749).
T1 construct: purchased Jack Henkin (Abbott Laboratories)
Briefly: Cleavage of maltose binding protein-QRGRSA-HY4 fusion protein by u-PA (SDS-PAGE). Format: biochemical. Conditions: 150 nM enzyme, 16 hours at 25 C. The procedure: (§1) The fusion consists of maltose binding protein fused to the amino terminus of the HY4 gene product of Arabidopsis thaliana with a linking region in between coding for the amino acid sequence QRGRSA, which is cleaved by t-PA between R and S. The concentration of fusion protein in each lane is […] and the concentration of u-PA or […] is 150 nM. The reaction buffer contains 50 mM Tris pH 7.5, 0.1 M NaCl, 1 mM EDTA, and 0.01% Tween 20. Reactions were set up in a total volume of […] and allowed to incubate 16 hours at 25 C. and then stopped by the addition of […] of 5× loading buffer and separated by electrophoresis on 12% polyacrylamide. The gel was stained with Coomassie Brilliant Blue 30 minutes and de-stained overnight.

For test [2], the target named is t-PA (Homo sapiens, UniProt P00750). Briefly: Cleavage of maltose binding protein-QRGRSA-HY4 fusion protein by t-PA (SDS-PAGE). The format is biochemical. The conditions noted are these: 150 nM enzyme, 16 hours at 25 C. The protocol:
as §1

Chain of t-PA (P00750 36-562): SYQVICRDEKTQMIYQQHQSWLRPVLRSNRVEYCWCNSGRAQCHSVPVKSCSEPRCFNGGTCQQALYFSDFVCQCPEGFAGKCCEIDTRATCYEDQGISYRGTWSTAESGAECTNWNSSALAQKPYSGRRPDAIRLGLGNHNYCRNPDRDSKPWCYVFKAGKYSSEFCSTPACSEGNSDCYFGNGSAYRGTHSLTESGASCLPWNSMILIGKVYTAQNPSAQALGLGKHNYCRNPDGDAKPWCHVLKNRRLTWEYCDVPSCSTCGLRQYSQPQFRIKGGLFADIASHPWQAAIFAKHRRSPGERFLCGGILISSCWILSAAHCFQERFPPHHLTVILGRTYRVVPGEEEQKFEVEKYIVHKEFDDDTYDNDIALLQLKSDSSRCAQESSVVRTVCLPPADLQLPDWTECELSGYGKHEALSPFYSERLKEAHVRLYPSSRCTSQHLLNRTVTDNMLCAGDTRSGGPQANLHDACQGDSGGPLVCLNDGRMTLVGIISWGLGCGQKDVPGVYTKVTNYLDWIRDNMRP

B1: fusion protein: maltose binding protein fused to HY4 gene product of Arabidopsis thaliana with linking region QRGRSA (protein)
chain: QRGRSAMSGSVSGCGSGGCSIVWFRRDLRVEDNPALAAAVRAGPVIALFVWAPEEEGHYHPGRVSRWWLKNSLAQLDSSLRSLGTCLITKRSTDSVASLLDVVKSTGASQIFFNHLYDPLSLVRDHRAKDVLTAQGIAVRSFNADLLYEPWEVTDELGRPFSMFAAFWERCLSMPYDPESPLLPPKKIISGDVSKCVADPLVFEDDSEKGSNALLARAWSPGWSNGDKALTTFINGPLLEYSKNRRKADSATTSFLSPHLHFGEVSVRKVFHLVRIKQVAWANEGNEAGEESVNLFLKSIGLREYSRYISFNHPYSHERPLLGHLKFFPWAVDENYFKAWRQGRTGYPLVDAGMRELWATGWLHDRIRVVVSSFFVKVLQLPWRWGMKYFWDTLLDADLESDALGWQYITGTLPDSREFDRIDNPQFEGYKFDPNGEYVRRWLPELSRLPTDWIHHPWNAPESVLQAAGIELGSNYPLPIVGLDEAKARLHEALSQMWQLEAASRAAIENGSEEGLGDSAEVEEAPIEFPRDITMEETEPTRLNPNRRYEDQMVPSITSSLIRPEEDEESSLNLRNSVGDSRAEVPRNMVNTNQAQQRRAEPASNQVTAMIPEFNIRIVAESTEDSTAESSSSGRRERSGGIVPEWSPGYSEQFPSEENGIGGGSTTSSYLQNHHEILNWRRLSQTG
modifications: left off: large carriers
Regarding B1, in test [1], the “cleavage of fusion protein by u-PA” value is reported as “did not”. Further, in test [2], the “cleavage of fusion protein by t-PA” value is given as “readily cleaved”.
